Test results: publication PMC3317640, “A Novel Enzymatic System against Oxidative Stress in the Thermophilic Hydrogen-Oxidizing Bacterium Hydrogenobacter thermophilus” (PLoS ONE, 2012)

What was measured:
[1] = substrate: CC(C)(C)OO; assay: hydroperoxide removal, FOX1 (xylenol orange) assay, Michaelis-Menten; type: biochemical, Hydrogenobacter thermophilus; conditions: 0.5 mM NADPH and FNR as electron donor system, 50 mM sodium phosphate pH 6.0, 50°C, anaerobic
[2] = substrate: CC(C)(OO)c1ccccc1; assay: as above; type: biochemical, Hydrogenobacter thermophilus; conditions: 0.5 mM NADPH and FNR as electron donor system, 50 mM sodium phosphate pH 6.0, 50°C, anaerobic

B1: ferriperoxin (Fpx) (Hydrogenobacter thermophilus TK-6) (protein)
chain: MKSLAGTKTLECLKHAFAGESQANRRYLYFARKADIEGYPDIANVFRETAEGETGHAFGHLEFLEKYGGGDPATGKPIGSMEQNLEAAIAGETYEYTEMYPGFAKTAREEGFDDIAEWFETLARAEKSHAGRFQKALESLKA
notes: full-length untagged (own start and stop codon, pET21c NdeI-HindIII), E. coli BL21(DE3); N-terminus MKSLAGTKTL; diiron holoprotein
**Q.** Which results are given for B1?
**A.** Km [1]: 1300 ± 300 µM; Km [2]: 1100 ± 200 µM
